According to patent publication US20170281764A1:

Experiments:
[1] = target: CD155 on K562 cells (human) (UniProt P15151); assay: flow cytometry of K562 cells stained with APC-labelled anti-CD155 (clone SKII.4 per paragraph 220); percent of cells in the marker gate from about 2x10^1 to 10^4
[2] = target: human TIGIT on cells (Jurkat-TIGIT cells; human T cells, NK cells and other blood cells) (human) (UniProt Q495A1); assay: flow cytometry of human PBMCs, PE anti-TIGIT (clone MBSA43 per paragraph 220) against A488 anti-CD56; CD56+ TIGIT+ gate, unit not given; middle panel (second of 3 donors)
Sequence of human TIGIT on cells (Jurkat-TIGIT cells; human T cells, NK cells and other blood cells) (human) (Q495A1 22-244): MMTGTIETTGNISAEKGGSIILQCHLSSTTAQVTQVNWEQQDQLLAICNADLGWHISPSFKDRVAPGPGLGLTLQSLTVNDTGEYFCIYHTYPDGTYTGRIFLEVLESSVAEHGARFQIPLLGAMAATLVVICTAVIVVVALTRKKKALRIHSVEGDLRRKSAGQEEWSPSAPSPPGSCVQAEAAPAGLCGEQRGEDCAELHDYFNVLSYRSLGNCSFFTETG

[3] = target: human TIGIT on cells (Jurkat-TIGIT cells; human T cells, NK cells and other blood cells) (human) (UniProt Q495A1); assay: flow cytometry of human PBMCs, PE anti-TIGIT (clone MBSA43 per paragraph 220) against A488 anti-CD56; CD56+ TIGIT+ gate, unit not given; left panel (first of 3 donors)
[4] = target: human TIGIT on cells (Jurkat-TIGIT cells; human T cells, NK cells and other blood cells) (human) (UniProt Q495A1); assay: flow cytometry of human PBMCs, PE anti-TIGIT (clone MBSA43 per paragraph 220) against A488 anti-CD56; CD56+ TIGIT+ gate, unit not given; right panel (third of 3 donors)

Sequence of CD155 on K562 cells (human) (P15151 21-417 limits assumed): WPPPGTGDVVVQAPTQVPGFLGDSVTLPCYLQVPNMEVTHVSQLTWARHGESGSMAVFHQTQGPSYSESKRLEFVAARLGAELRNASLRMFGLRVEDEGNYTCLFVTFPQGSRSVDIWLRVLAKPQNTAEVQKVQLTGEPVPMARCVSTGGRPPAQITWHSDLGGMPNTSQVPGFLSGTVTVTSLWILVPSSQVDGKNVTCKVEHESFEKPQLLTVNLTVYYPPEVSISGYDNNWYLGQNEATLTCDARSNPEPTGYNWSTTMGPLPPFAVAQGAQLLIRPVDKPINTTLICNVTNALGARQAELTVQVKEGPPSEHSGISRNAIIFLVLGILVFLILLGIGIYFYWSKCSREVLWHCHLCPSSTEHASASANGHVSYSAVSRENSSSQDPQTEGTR

Substance	% CD155 [1]	TIGIT+ NK Cells [2]	TIGIT+ NK Cells [3]	TIGIT+ NK Cells [4]
CD155 - APC (antibody)	98.5%	–	–	–
anti-human TIGIT antibody clone MBSA43 (commercial; eBiosciences / BioLegend)	–	8.03	4.84	5.47
